Test results reported in patent US11142752B2, “Pullulanase mutant” (Jiangnan University, priority 2018, dated 2021).
Where a chain is given by its changes, count along the chain named. In names and notes the source's numbering stands. Several values for one entry are separate records, joined by “and”; a condition that tells them apart may be missing. Equal entries are not always repeated.

B1: Mutant F476G: Bacillus subtilis str. 168 pullulanase with phenylalanine at position 476 mutated into glycine (protein, UniProt C0SPA0 1-718, looked up, variant F476G)
Pullulanase: MVSIRRSFEAYVDDMNIITVLIPAEQKEIMTPPFRLETEITDFPLAVREEYSLEAKYKYVCVSDHPVTFGKIHCVRASSGHKTDLQIGAVIRTAAFDDEFYYDGELGAVYTADHTVFKVWAPAATSAAVKLSHPNKSGRTFQMTRLEKGVYAVTVTGDLHGYEYLFCICNNSEWMETVDQYAKAVTVNGEKGVVLRPDQMKWTAPLKPFSHPVDAVIYETHLRDFSIHENSGMINKGKYLALTETDTQTANGSSSGLAYVKELGVTHVELLPVNDFAGVDEEKPLDAYNWGYNPLHFFAPEGSYASNPHDPQTRKTELKQMINTLHQHGLRVILDVVFNHVYKRENSPFEKTVPGYFFRHDECGMPSNGTGVGNDIASERRMARKFIADCVVYWLEEYNVDGFRFDLLGILDIDTVLYMKEKATKAKPGILLFGEGWDLATPLPHEQKAALANAPRMPGIGFFNDMFRDAVKGNTGHLKATGFALGNGESAQAVMHGIAGSSGWKALAPIVPEPSQSINYVESHDNHTFWDKMSFALPQENDSRKRSRQRLAAAIILLAQGVPFIHSGQEFFRTKQGVENSYQSSDSINQLDWDRRETFKEDVHYIRRLISLRKAHPAFRLRSAADIQRHLECLTLKEHLIAYRLYDLDEVDEWKDIIVIHHASPDSVEWRLPNDIPYRLLCDPSGFQEDPTEIKKTVAVNGIGTVILYLASDLKSFA
B2: Mutant F476A: Bacillus subtilis str. 168 pullulanase mutated at position 476 (F to A) (protein, UniProt C0SPA0 1-718, looked up, variant F476A)
Pullulanase: B1 Pullulanase with G476A
B3: Wild enzyme: wild type pullulanase derived from Bacillus subtilis str. 168 (PDB:2E8Z, NCBI CAB14971.2, SEQ ID NO:2) (protein, listed as Bacillus subtilis)
chain: B1 Pullulanase with G476F
B4: Mutant F476M: Bacillus subtilis str. 168 pullulanase mutated at position 476 (F to M) (protein, UniProt C0SPA0 1-718, looked up, variant F476M)
Pullulanase: B1 Pullulanase with G476M
B5: Mutant F476I: Bacillus subtilis str. 168 pullulanase mutated at position 476 (F to I) (protein, UniProt C0SPA0 1-718, looked up, variant F476I)
Pullulanase: B1 Pullulanase with G476I
B6: Mutant F476C: Bacillus subtilis str. 168 pullulanase mutated at position 476 (F to C) (protein, UniProt C0SPA0 1-718, looked up, variant F476C)
Pullulanase: B1 Pullulanase with G476C
B7: Mutant F476V: Bacillus subtilis str. 168 pullulanase mutated at position 476 (F to V) (protein, UniProt C0SPA0 1-718, looked up, variant F476V)
Pullulanase: B1 Pullulanase with G476V
B8: Mutant F476D: Bacillus subtilis str. 168 pullulanase with phenylalanine at position 476 mutated into aspartic acid (protein, UniProt C0SPA0 1-718, looked up, variant F476D)
Pullulanase: B1 Pullulanase with G476D
B9: [Brevibacterium] halotolerans Wild enzyme: wild pullulanase of [Brevibacterium] halotolerans (OEC77647.1, SEQ ID NO: 23) (protein)
chain: MVSIQRSFEAYADEMNIITVLIPADQKDTFTPPFQLETDTAEIPLTVSQEWQIEGKCKYVCVAEQPVTFGKTHHVKASGGGKTDLQIGAVVRTDAFDAAFYYDGELGAVYTSDYTEFKVWAPAATSAAVKLSHPEKSGHTLQMTRMENGVYAVTVAGDLHGYEYVYRICNNLEWTETVDPYAKAVTVNGEKGVVLRPDQANSAPSLAPFSDPVDAIIYEMHIRDFSIHENSGMKNKGKYSALAETDTKTKNGSSTGLSYLKELGVTHIELLPLNDYAGVDEENPLAAYNWGYNPLHFFAPEGSYASNPHDPQTRNTEVKQMIHTLQQHGLRVILDVVYNHVYQREHSPFEKTVPGYFFRHDQFGMPSNGTGVGNDIASERRMARKFITDCVMYWLKEYDVDGFRFDLLGILDIETVLHMKEKASEVKPGILLFGEGWDLATPLPPEQKATLANASKMPGVGFFNDSFRDAVKGNTFHIAAAGFALGNGEQTETVMRGIAGSSGWKETAPLVSAPSQSINYVESHDNHTFWDKMSLALPQESESRKRSRQKLASAIILLAQGVPFIHSGQEFFRTKQGVENSYQSSDSINQLDWSRRETFKQDVDYVRRLISLRKAHPAFRLTSSADIQRCLECLALKEHLIVYRLFNLGAIDEWEEIIVIHHASPDSVTWQLPKDKAYRLLCDTDGFRADPGEIKKAVAVNGIGTVILF
modifications: bacterial

What was measured:
[1] = system: pullulanase derived from Bacillus subtilis str. 168; assay: Inhibitory effect of cyclodextrin on pullulanase enzyme activity (DNS method, pullulan substrate); format: biochemical; conditions: for Reduction rate of specific enzyme activity in existence of α-CD / Reduction rate of specific enzyme activity in existence of β-CD / Reduction rate of specific enzyme activity in existence of γ-CD: Bacillus subtilis str. 168 pullulanase, 1% pullulan pH 6.0, 40° C., 30 min; for Reduction rate of specific enzyme activity in existence of α-CD: inhibitor α-CD (0.1 mL of 10 mM cyclodextrin); for Reduction rate of specific enzyme activity in existence of β-CD: inhibitor β-CD (0.1 mL of 10 mM cyclodextrin); for Reduction rate of specific enzyme activity in existence of γ-CD: inhibitor γ-CD (0.1 mL of 10 mM cyclodextrin); for Inhibitory effects of three cyclodextrins on the pullulanase mutant compared with the wild type pullulanase: α-CD, β-CD and γ-CD, comparison of mutant with wild type pure enzyme
Description: (§1) 2. Measurement of Enzyme Activity of the Pullulanase:
(§2) A 3,5-dinitrosalicylic acid (DNS) method is adopted. The pullulanase catalyzes the hydrolysis of pullulan to produce reducing sugar under certain conditions, 3,5-dinitrosalicylic acid and the reducing sugar are reduced under thermal conditions to produce a brown-red amino complex, the color depth is directly proportional to the amount of the reducing sugar within a certain range, and the measurement can be performed at the wavelength of 540 nm so as to calculate the enzyme activity. Enzyme activity unit definition: the amount of the enzyme that catalyzes the production of the reducing sugar equivalent to 1 μmol of glucose reducing power per minute is defined as one activity unit.
(§3) 3. Measurement of the Enzyme Activity Comprises the Following Steps:
(§4) A. preheating: putting 1 mL of a 1% pullulan solution of which the pH value is 6.0 and 0.1 mL of a buffer solution of which the pH value is 6.0 in a centrifuge tube, and performing thermal insulation for 10 min on a water bath of 40° C.;
(§5) B. reaction: adding 0.1 mL (10 U) of an enzyme solution, performing shaking and mixing uniformly, performing accurate timing for 30 min, adding 1.5 mL of DNS for stopping reaction, performing treatment in a boiling water bath for 10 min, and performing instant cooling; and
(§6) C. measurement: measuring the light absorption value under the condition of 540 nm, and calculating the activity.
(§7) Reduction of the Inhibitory Effect of Enzyme Activity Characterization:
(§8) A. preheating: putting 1 mL of the 1% pullulan solution of which the pH value is 6.0 and 0.1 mL of 10 mM cyclodextrin in the centrifuge tube, and performing thermal insulation for 10 min on the water bath of 40° C.;
B. reaction: adding 0.1 mL (10 U) of the enzyme solution, performing shaking and mixing uniformly, performing accurate timing for 30 min, adding 1.5 mL of DNS for stopping reaction, performing treatment in the boiling water bath for 10 min, and performing instant cooling; and […]

[2] = system: pullulanase of [Brevibacterium] halotolerans; assay: as above; format: biochemical
Description: as §1, §2, §3, §4, §5, §6, §7, §8
B. reaction: adding 0.1 mL (10 U) of the enzyme solution, performing shaking and mixing uniformly, performing accurate timing for 30 min, adding 1.5 mL of DNS for stopping reaction, performing treatment in the boiling water bath for 10 min, and performing instant cooling; and
On the basis, the phenylalanine at the position 481 of the Geobacillus stearothermophilus, the phenylalanine at the position 478 of the [Brevibacterium] halotolerans and the phenylalanine at the position 476 of the […] are mutated, obtained mutants and the mutation effects are shown in the table below. The key amino acid site is applicable to the pullulanase from different sources.

[3] = listed as wild type pure enzyme

| Molecule | Reduction rate of specific enzyme activity in existence of α-CD [1] [%] | Reduction rate of specific enzyme activity in existence of β-CD [1] [%] | Reduction rate of specific enzyme activity in existence of γ-CD [1] [%] | Inhibitory effects of three cyclodextrins on the pullulanase mutant compared with the wild type pullulanase [1] | Reduction rate of specific enzyme activity in existence of α-CD [1, 3] [%] | Reduction rate of specific enzyme activity in existence of β-CD [1, 3] [%] | Reduction rate of specific enzyme activity in existence of γ-CD [1, 3] | Reduction rate of specific enzyme activity in existence of α-CD ([2]; inhibitor α-CD) [%] | Reduction rate of specific enzyme activity in existence of β-CD ([2]; inhibitor β-CD) [%] | Reduction rate of specific enzyme activity in existence of γ-CD ([2]; inhibitor γ-CD) [%] |
| --- | --- | --- | --- | --- | --- | --- | --- | --- | --- | --- |
| B1 | 10.6 | 17.1 | 17.6 | significantly lower than that of the wild type pullulanase |  |  |  |  |  |  |
| B2 | 3.5 | 5.6 | 5.8 |  |  |  |  |  |  |  |
| B3 | 14.3 | 42.8 | 17.1 |  | 14.3 | 42.8 | 7.1% and 17.1% |  |  |  |
| B4 | 6.5 | 20.6 | 16.1 |  |  |  |  |  |  |  |
| B5 | 8.2 | 21.7 | 15.2 |  |  |  |  |  |  |  |
| B6 | 4.3 | 17.2 | 5.6 |  |  |  |  |  |  |  |
| B7 | 7.2 | 16.7 | 12.3 |  |  |  |  |  |  |  |
| B8 | 5.6 | 11.1 | 11.0 | significantly lower than that of the wild type pullulanase |  |  |  |  |  |  |
| B9 |  |  |  |  |  |  |  | 15.3 | 47.2 | 6.1 |
